T1: CD20 on Raji cells (UniProt P11836 1-297, limits assumed)
T1 construct: whole, on cells
T1 sequence (looked up): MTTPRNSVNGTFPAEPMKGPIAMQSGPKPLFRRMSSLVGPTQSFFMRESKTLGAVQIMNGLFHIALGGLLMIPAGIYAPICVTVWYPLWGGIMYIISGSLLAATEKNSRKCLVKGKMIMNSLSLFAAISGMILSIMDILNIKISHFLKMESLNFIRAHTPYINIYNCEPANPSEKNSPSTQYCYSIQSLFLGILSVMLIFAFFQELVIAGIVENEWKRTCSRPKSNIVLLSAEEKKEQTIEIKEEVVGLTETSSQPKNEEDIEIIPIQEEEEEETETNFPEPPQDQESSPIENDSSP


Experiments:
[1] = biological target: T2, human γδ TCR (Vγ9Vδ2) on human γδ T cells (human); assay: flow cytometry on human PBMC gated on γδ TCR+ (Vγ9Vδ2) T cells, anti-human Fcγ A647
T2 construct: whole, on cells; also called Vδ2+ γδ T cells; Vγ9Vδ2 T cells
T2 sequence (main, as listed by the source): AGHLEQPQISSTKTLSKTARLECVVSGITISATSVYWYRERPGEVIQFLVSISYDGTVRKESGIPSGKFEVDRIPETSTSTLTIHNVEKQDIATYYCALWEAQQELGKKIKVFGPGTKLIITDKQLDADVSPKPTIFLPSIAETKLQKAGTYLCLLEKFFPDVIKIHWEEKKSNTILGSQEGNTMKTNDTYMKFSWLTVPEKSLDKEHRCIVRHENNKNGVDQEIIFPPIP
Method: (§1) The binding activity of a bispecific γδ TCR molecule that binds γδTCR and the representative target antigen CD20 (γδTCR×CD20) comprising anti-γδ VHH domain 1D7v9, an anti-CD20 VHH domain and a heterodimeric knob-in-hole Fc region (cx11498) was assessed by flow cytometry on Raji target cells expressing CD20 and Vγ9Vδ2 T cells. PBMCs and Raji cells were thawed and resuspended to 1.0×10\hat{ }6 cells/ml in FACS buffer. 100,000 PBMCs or Raji cells were seeded in a 96-well plate. Test articles were added at a final starting concentration of 50 nM and titrated across the plate 1:4. Cells were incubated with the antibody for 30 minutes at 4 C, spun down, and washed four times with FACS buffer. Cells were labeled with anti-human Fcγ-A647 (Jackson ImmunoResearch) and PBMCs were also labeled with anti-human δ TCR-FITC (Biolegend) in 50 uL of FACS for 30 minutes at 4 C. The plate was washed twice with FACS buffer, resuspended in FACS buffer and read on the IQue flow cytometer. The mean fluorescent intensity for anti-human Fcγ-A647 was calculated using onboard software and graphed using Graphpad Prism. The γδ TCR×antigen molecule bound to both antigen (CD20) expressing Raji cells (FIG. 7A) and V 9Vδ2 T cells (FIG. 7B) in a titration dependent manner.

CD20 on Raji cells = biological target: T1, CD20 on Raji cells; assay: flow cytometry on CD20-expressing Raji cells, anti-human Fcγ A647
Method: as §1

[2] = biological target: T3, CD33 on MOLM-13 and MV-411 cells (UniProt P20138 18-364, limits assumed); assay: flow cytometry on CD33-expressing MOLM-13 cells, anti-human A647
T3 construct: whole, on cells
T3 sequence (P20138 18-364 limits assumed): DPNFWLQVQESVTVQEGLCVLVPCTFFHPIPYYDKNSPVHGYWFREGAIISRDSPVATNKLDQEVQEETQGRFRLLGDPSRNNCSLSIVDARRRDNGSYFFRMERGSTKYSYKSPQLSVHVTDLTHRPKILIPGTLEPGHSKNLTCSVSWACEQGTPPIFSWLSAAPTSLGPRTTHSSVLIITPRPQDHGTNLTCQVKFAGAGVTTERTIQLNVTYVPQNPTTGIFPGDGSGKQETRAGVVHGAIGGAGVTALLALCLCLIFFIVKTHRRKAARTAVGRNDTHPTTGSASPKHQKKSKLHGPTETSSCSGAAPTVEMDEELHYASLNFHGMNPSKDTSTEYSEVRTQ
Method: (§2) A monospecific CD33 construct comprising an irrelevant second VHH domain instead of a γδTCR VHH domain (CD33×UT; cx12056) was also tested. Briefly, frozen PCMCs (previously treated with zoledronate to expand γδ T cells) were thawed and washed twice using 1×CTL thawing reagent in assay media. Cells were resuspended to 1×10\hat{ }6 cells/mL in FACs buffer and plated on a 96 well plate (100,000 cells/well). The test articles were added in 50 uL to each well at 4× the final starting concentration of 200 nM and titrated 1:4 across. 50 uL of FACS buffer was added for the final total volume of 200 uL. Cells were incubated with the test article at 4 C for 30 minutes, washed three times, and stained with Vd2-PE, CD3-BV785, and anti-human-A647 antibodies in FACS buffer for 30 minutes at 4 C. The cells were then washed 2× with FACS buffer, resuspended in 70 ul of FACS buffer and read on a Novocyte. All the molecules bound to CD33 expressing MOLM-13 (FIG. 8A) and MV4-11 (FIG. 8B) cells in a titration dependent manner. However, only the bispecific γδTCR×CD33 molecule bound to V 9Vδ2 T cells (FIG. 8C) in a titration dependent manner.

[3] = biological target: T2, human γδ TCR (Vγ9Vδ2) on human γδ T …; assay: flow cytometry on zoledronate-expanded human PBMC gated on Vδ2+ cells, anti-human A647
Method: as §2

EC50 (read off the curve) [1] [nM]	EC50 (read off the curve) (CD20 on Raji cells) [nM]	binding result [2]	EC50 (read off the curve) [3] [nM]	Binder
~2	~5			cx11498, γδTCR×CD20 bispecific polypeptide (1D7v9 VHH-Fc hole / anti-CD20 VHH-Fc knob) (bispecific antibody, V domains shown, also called γδ TCRxCD20; anti-CD20×Vγ9-1D7v9) V domain 1: EVQLLESGGGEVQPGGSLRLSCVASRGKISQYRMGWYRQAPGKELEWVAHISNTGDAAEYVDSVKGRFTISRDSTKNAVYLQMSSLRAEDTAVYKCNSVEDILAWGQGTLVTVKP V domain 2: QVQLQESGGGLVQPGGSLRLSCAASGRTFSMGWFRQAPRKEREFVAAITYSGGSPYYASSVRGRFTISRDNAKNTVYLQMNSLKPEDTAVYYCAARLTYGSTWSAENWGQGTQVTVKP
		binds	~20	cx12083, γδTCR×CD33 bispecific polypeptide (anti-CD33 VHH-Fc knob / 1D7v9 VHH-Fc hole) (bispecific antibody, V domains shown, also called γδ TCRxCD33; CD33×1D7v9) V domain 1: EVQLVESGGGEVQPGGSLRLSCAASRSSGIDVMGWYRQAPGKERELVAEISGVGDTNYAASLADRFTVSRDNAKNTVYLQMSSLRAEDTAVYYCNAHSFLDLVGAWGQGTLVTVKP V domain 2: EVQLLESGGGEVQPGGSLRLSCVASRGKISQYRMGWYRQAPGKELEWVAHISNTGDAAEYVDSVKGRFTISRDSTKNAVYLQMSSLRAEDTAVYKCNSVEDILAWGQGTLVTVKP
		binds		cx12056, CD33×UT (untargeted) monospecific CD33 construct (anti-CD33 VHH-Fc knob / 4GFTv1 VHH-Fc hole) (Fc fusion, also called CD33 x UT) chain 1: EVQLVESGGGEVQPGGSLRLSCAASRSSGIDVMGWYRQAPGKERELVAEISGVGDTNYAASLADRFTVSRDNAKNTVYLQMSSLRAEDTAVYYCNAHSFLDLVGAWGQGTLVTVKPGGGGDKTHTCPPCPAPGGPSVFLFPPKPKDTLMISRTPEVTCVVVDVSHEDPEVKFNWYVDGVEVHNAKTKPREEQYNSTYRVVSVLTVLHQDWLNGKEYKCKVSNKALPAPIEKTISKAKGQPREPQVYTLPPCRDELTKNQVSLWCLVKGFYPSDIAVEWESNGQPENNYKTTPPVLDSDGSFFLYSKLTVDKSRWQQGNVFSCSVMHEALHNHYTQKSLSLSPGK chain 2: EVQLVESGGGEVQPGGSLRLSCSAAPERAFSNYAMGWFRQAPGKGREFVAGITGSGRSQYYAESVKGRFTISRDNAKNTLYLQMSSLRAEDTAVYYCAARVVPVFSESTKGYVYWGQGTLVTVKPGGGGDKTHTCPPCPAPGGPSVFLFPPKPKDTLMISRTPEVTCVVVDVSHEDPEVKFNWYVDGVEVHNAKTKPREEQYNSTYRVVSVLTVLHQDWLNGKEYKCKVSNKALPAPIEKTISKAKGQPREPQVCTLPPSRDELTKNQVSLSCAVKGFYPSDIAVEWESNGQPENNYKTTPPVLDSDGSFFLVSKLTVDKSRWQQGNVFSCSVMHEALHNRYTQKSLSLSPGK
